Legend:
[1] = target: T1, IL-11 protein (UniProt P20809 22-199, limits assumed); test: SPR (Biacore), antibody captured, 400 nM IL-11 as analyte
T1 construct: also called IL-11 antigen
T1 sequence (looked up): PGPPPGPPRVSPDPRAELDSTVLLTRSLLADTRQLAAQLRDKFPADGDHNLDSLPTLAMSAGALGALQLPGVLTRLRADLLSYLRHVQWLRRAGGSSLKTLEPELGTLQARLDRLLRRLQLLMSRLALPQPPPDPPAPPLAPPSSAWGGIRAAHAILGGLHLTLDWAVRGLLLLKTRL
Procedure: (§1) The measure method included the steps of capturing the humanized antibody at a flow rate of 10 ul/min. […] Finally the chip was regenerated with 10 mM glycine buffer.

[2] = target: T2, recombinant IL-31 (Peprotech, 200-31) (UniProt Q6EBC2 24-164); test: ELISA, cytokine coated
T2 sequence (looked up): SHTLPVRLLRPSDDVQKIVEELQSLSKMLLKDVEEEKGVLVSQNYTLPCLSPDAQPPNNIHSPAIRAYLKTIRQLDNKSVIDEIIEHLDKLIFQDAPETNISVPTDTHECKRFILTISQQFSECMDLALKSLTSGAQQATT

[3] = target: T3, recombinant CT-1 (R&D systems, 612-CD-010) (UniProt Q16619 2-201, limits assumed); test: ELISA, cytokine coated
T3 sequence (looked up): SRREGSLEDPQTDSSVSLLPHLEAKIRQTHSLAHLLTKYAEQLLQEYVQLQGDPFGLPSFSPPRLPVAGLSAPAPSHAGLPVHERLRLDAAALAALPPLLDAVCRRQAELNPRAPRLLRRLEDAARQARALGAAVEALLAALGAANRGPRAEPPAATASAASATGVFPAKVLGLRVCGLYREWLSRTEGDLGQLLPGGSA

[4] = target: T4, recombinant IL-27 (R&D systems, 2526-IL-010) (UniProt Q8NEV9 29-243; Q14213 21-229); test: ELISA, cytokine coated
T4 sequence (looked up) 1: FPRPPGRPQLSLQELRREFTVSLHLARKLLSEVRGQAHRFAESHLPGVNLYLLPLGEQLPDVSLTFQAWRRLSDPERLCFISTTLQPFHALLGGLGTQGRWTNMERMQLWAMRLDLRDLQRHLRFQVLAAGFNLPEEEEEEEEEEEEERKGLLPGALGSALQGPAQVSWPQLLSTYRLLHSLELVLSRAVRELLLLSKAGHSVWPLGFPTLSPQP
T4 sequence (looked up) 2: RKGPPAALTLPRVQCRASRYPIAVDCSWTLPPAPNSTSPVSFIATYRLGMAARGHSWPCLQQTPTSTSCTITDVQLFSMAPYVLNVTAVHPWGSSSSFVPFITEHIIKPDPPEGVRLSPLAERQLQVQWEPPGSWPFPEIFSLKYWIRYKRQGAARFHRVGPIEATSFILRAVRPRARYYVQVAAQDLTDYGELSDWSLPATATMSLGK

[5] = target: T5, recombinant CLC (R&D systems, 962-CL-050) (UniProt Q9UBD9 28-225); test: ELISA, cytokine coated
T5 sequence (looked up): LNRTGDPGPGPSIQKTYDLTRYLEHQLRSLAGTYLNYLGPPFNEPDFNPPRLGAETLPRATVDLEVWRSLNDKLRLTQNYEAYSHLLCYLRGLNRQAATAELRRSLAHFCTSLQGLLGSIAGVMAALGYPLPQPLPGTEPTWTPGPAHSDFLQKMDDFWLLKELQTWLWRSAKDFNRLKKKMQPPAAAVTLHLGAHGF

[6] = target: T6, recombinant IL-11 (LSBio, LS-G132887-10) (UniProt P20809 22-199); test: ELISA, cytokine coated
T6 construct: also called IL-11 cytokine
T6 sequence (looked up): T1 sequence (looked up)

[7] = target: T7, recombinant OSM (Genscript-z03132) (UniProt P13725 26-234, limits assumed); test: ELISA, cytokine coated
T7 sequence (looked up): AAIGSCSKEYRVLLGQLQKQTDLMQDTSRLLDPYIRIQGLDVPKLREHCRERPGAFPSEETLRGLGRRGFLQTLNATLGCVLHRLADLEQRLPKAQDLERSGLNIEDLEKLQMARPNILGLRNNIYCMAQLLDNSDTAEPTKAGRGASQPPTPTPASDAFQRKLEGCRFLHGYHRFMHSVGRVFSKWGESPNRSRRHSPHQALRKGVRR

[8] = target: T8, recombinant CNTF (R&D systems, 257-NT-010) (UniProt P26441 2-200); test: ELISA, cytokine coated
T8 sequence (looked up): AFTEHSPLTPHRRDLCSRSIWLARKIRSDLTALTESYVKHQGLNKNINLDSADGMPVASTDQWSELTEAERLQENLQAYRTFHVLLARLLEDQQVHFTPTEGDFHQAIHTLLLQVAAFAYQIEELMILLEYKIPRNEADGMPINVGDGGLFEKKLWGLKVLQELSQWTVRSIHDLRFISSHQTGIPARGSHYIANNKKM

[9] = target: recombinant IL-6 (Sinobiological-10395-HNAE) (UniProt P05231 30-212); test: ELISA, cytokine coated
[10] = target: recombinant LIF (Peprotech, 300-05) (UniProt P15018 23-202); test: ELISA, cytokine coated
recombinant LIF (Peprotech, 300-05), sequence (P15018 23-202 limits assumed): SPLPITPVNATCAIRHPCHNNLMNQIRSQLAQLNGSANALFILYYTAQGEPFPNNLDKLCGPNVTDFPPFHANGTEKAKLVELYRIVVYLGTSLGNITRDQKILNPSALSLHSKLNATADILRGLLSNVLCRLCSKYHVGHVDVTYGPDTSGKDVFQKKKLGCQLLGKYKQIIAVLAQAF

[11] = target: T1, IL-11 protein; test: flow competition: IL-11 + antibody on IL-11R cells; lower = more blocking
Excerpt: (§2) Cell lines with high secretion of specific antibody were selected for expanded culture and cryopreservation.

[12] = target: T9, IL-11-Fc protein (UniProt P20809 22-199, limits assumed); test: flow competition: IL-11-Fc + antibody gradient on membrane-IL-11R CHO cells; 5-20E11-5F2 antibody
T9 construct: also called IL-11 recombinant protein with Fc tag; not shown: Fc tag
T9 sequence (looked up): T1 sequence (looked up)
Excerpt: The secondary antibody used in the detection was a secondary antibody conjugated with a FITC fluorophore (Goat-anti-Fc-FITC) (Abcam, ab98529).

[13] = target: T1, IL-11 protein; test: ELISA, monoclonal hybridoma supernatant on IL-11
Excerpt: as §2

[14] = target: T1, IL-11 protein; test: SPR (Biacore), IgG captured, IL-11 6.25-400 nM as analyte
Procedure: as §1

Kd [1]: 2.09 nM
koff [1]: 0.000122 s⁻¹
kon [1]: 58400 M⁻¹ s⁻¹
OD450 nm [2]: 0.036
OD450 nm [3]: 0.034
OD450 nm [4]: 0.048
OD450 nm [5]: 0.033
OD450 nm [6]: 1.93
OD450 nm [7]: 0.045
OD450 nm [8]: 0.036
OD450 nm [9]: 0.049
OD450 nm [10]: 0.037
FITC Mean [11]: 3110
IC50 [12]: ~21 µg/mL
OD450 [13]: 1.6
Kd [14]: 6.41 nM
koff [14]: 0.000433 s⁻¹
kon [14]: 67600 M⁻¹ s⁻¹
B1: 5-20E11-5F2 (antibody, human IgG1, kappa, V domains shown)
VH: QVQLQQSGAELVRPGTSAKISCKASDYTFTNYWLGWLKQRPGHGLEWIGHIYPGGGYTNYNEKFKGKATLTADTSSSTAYMQLSSLTSEDSAVYFCARVRSGNDALDFWGQGTSVTVSS
VL: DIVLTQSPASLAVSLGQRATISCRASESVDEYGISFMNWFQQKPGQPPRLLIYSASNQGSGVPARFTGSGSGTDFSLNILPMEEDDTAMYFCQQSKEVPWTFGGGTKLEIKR
notes: also called 5-20E11-5F2 antibody; 5-20E11-5F2 mAb
